Experimental findings from paper PMC12362114 are described below.

Data set [1] has as its target 3xFlag-FASN wild type (fatty acid synthase) (UniProt P49327). The experiment in a line: native gel or EMSA; lysates of transfected Hep3B cells (10 mM Tris/HCl, 1 mM EDTA, 1 mM EGTA, 0.5% Triton X-100, pH 7.5) on a 4-to-10% gradient gel, 50 V overnight at 4 °C, blotted for 3xFlag-FASN; monomers (~250 kDa) and dimers (~500 kDa).
Data set [2] is described as follows: anti-Flag Western blot, Hep3B lysates. The settings on record: glycan lost; control: wild type 3xFlag-FASN.
Data set [3] is described as follows: BODIPY 493/503 staining, confocal, droplet count. To be noted: glycan lost; control: wild type 3xFlag-FASN.
The nature of data set [4]: cell fractionation (membrane vs cytosol), Western blot. The settings on record: glycan lost; control: wild type 3xFlag-FASN.
Data set [5] in a line: cycloheximide chase 0-24 h, protein remaining. To be noted: glycan lost; control: wild type 3xFlag-FASN.

Regarding “3xFlag-FASN wild type (fatty acid synthase), P49327 1-2511”, the stoichiometry N in data set [1] amounted to 2.
With Fatty Acid Synthase (FASN): S595A, in data set [2], the expression_or_secretion entry is “decreases”. Also, in data set [3], the “other: lipid droplet number (activity proxy)” value is reported as “no change”. Besides, the localisation_or_trafficking result in data set [4] is reported as “no change”.
Turning to Fatty Acid Synthase (FASN): T980A, the expression_or_secretion result in data set [2] is reported as “decreases”. Besides, in data set [5], the degradation_or_half_life result is reported as “decreases”. Also, in data set [4], the localisation_or_trafficking entry is given as “decreases”.
